In PMC5493677, “The role of the FliD C-terminal domain in pentamer formation and interaction with FliT” (Scientific Reports, 2017):

B2: StFliT_(1–94), C-terminus-truncated FliT from Salmonella Typhimurium (domain or fragment)
chain: MTSTVEFINRWQRIALLSQSLLELAQRGEWDLLLQQEVSYLQSIETVMEKQTPPGITRSIQDMVAGYIKQTLDNEQLLKGLLQQRLDELSSLIG
notes: FliT (flagellar export chaperone) of Salmonella Typhimurium, residues 1–94; At the glutathione-Sepharose step of the co-purification the GST tag was still on; it was cut by TEV protease before ion exchange and gel filtration; source: E. coli BL21(DE3); purified alone (glutathione-Sepharose, TEV cleavage, gel filtration) for ITC; co-expressed with StFliD constructs and co-purified for the …
B5: StFliD_(1–467), full-length FliD from Salmonella Typhimurium, wild type (natural protein)
chain: MASISSLGVGSNLPLDQLLTDLTKNEKGRLTPITKQQSANSAKLTAYGTLKSALEKFQTANTALNKADLFKSTVASSTTEDLKVSTTAGAAAGTYKINVTQLAAAQSLATKTTFATTKEQLGDTSVTSRTIKIEQPGRKEPLEIKLDKGDTSMEAIRDAINDADSGIAASIVKVKENEFQLVLTANSGTDNTMKITVEGDTKLNDLLAYDSTTNTGNMQELVKAENAKLNVNGIDIERQSNTVTDAPQGITLTLTKKVTDATVTVTKDDTKAKEAIKSWVDAYNSLVDTFSSLTKYTAVEPGEEASDKNGALLGDSVVRTIQTGIRAQFANSGSNSAFKTMAEIGITQDGTSGKLKIDDDKLTKVLKDNTAAARELLVGDGKETGITTKIATEVKSYLADDGIIDNAQDNVNATLKSLTKQYLSVSNSIDETVARYKAQFTQLDTMMSKLNNTSSYLTQQFTAMNKS
notes: FliD (HAP2, flagellar filament capping protein) of Salmonella Typhimurium, residues 1–467; also called StFliD WT; HAP2; source: E. coli BL21(DE3); co-expressed with StFliT 1–94 and co-purified (glutathione-Sepharose, TEV, Hitrap Q, Superdex 200) for the complex

Key:
[1] = target: the molecule itself; experiment: SEC-MALS; samples at 100 μM (Fig. 2c); Superdex 200 10/300 GL in buffer A (20 mM Tris-HCl pH 8.0, 200 mM NaCl), 0.4 mL/min
[2] = target: T1, StFliD_(1–467) L443R mutant (Salmonella Typhimurium, UniProt P16328 1-467, L443R); experiment: ITC; 170 μM StFliT 1–94 injected (2.5 μL, every 200 s) into 26 μM StFliD in the cell; 298 K; buffer A (20 mM Tris-HCl pH 8.0, 200 mM NaCl); conditions: both partners purified
T1 construct: FliD of Salmonella Typhimurium, residues 1–467, with L443R; Monomer by SEC-MALS; also called StFliD L443R; FliD (L443R)
T1 sequence: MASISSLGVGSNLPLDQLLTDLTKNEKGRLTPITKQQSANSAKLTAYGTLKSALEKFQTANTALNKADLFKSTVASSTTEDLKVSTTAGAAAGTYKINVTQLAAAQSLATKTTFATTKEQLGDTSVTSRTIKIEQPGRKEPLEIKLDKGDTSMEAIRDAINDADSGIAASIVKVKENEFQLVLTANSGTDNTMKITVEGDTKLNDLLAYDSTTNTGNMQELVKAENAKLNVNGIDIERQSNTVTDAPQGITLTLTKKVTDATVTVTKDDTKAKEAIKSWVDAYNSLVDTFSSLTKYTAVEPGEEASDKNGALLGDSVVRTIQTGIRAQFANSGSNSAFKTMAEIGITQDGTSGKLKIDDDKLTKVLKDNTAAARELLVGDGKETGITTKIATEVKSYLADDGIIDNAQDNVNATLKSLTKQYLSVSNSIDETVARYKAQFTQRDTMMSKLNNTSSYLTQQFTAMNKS

[3] = target: B5; experiment: as above; conditions: both partners purified
[4] = target: the molecule itself; experiment: SAXS; purified proteins and co-purified complexes, 1.0–10.0 mg/mL, 4 °C; ab initio envelopes (DAMMIF)
[5] = target: B2; experiment: SEC-MALS; co-purified complexes (Fig. 1b), concentration not given; Superdex 200 10/300 GL in buffer A (20 mM Tris-HCl pH 8.0, 200 mM NaCl), 0.4 mL/min; conditions: both partners purified
[6] = target: B2; experiment: SEC-MALS; samples at 100 μM (Fig. 2c); Superdex 200 10/300 GL in buffer A (20 mM Tris-HCl pH 8.0, 200 mM NaCl), 0.4 mL/min; conditions: both partners purified
[7] = target: B2; experiment: SEC-MALS; samples at 10 μM (Fig. 2c); Superdex 200 10/300 GL in buffer A (20 mM Tris-HCl pH 8.0, 200 mM NaCl), 0.4 mL/min; conditions: both partners purified

B1: StFliD_(1–300) (domain or fragment)
chain: MASISSLGVGSNLPLDQLLTDLTKNEKGRLTPITKQQSANSAKLTAYGTLKSALEKFQTANTALNKADLFKSTVASSTTEDLKVSTTAGAAAGTYKINVTQLAAAQSLATKTTFATTKEQLGDTSVTSRTIKIEQPGRKEPLEIKLDKGDTSMEAIRDAINDADSGIAASIVKVKENEFQLVLTANSGTDNTMKITVEGDTKLNDLLAYDSTTNTGNMQELVKAENAKLNVNGIDIERQSNTVTDAPQGITLTLTKKVTDATVTVTKDDTKAKEAIKSWVDAYNSLVDTFSSLTKYTAVE
notes: FliD of Salmonella Typhimurium, residues 1–300; Dimer at 100 μM by SEC-MALS; source: cloned into pRSF-duet
[1]
  stoichiometry N: 2

## B2
[2]
  Kd: 3010 ± 100 nM
[3]
  Kd: 235.1 ± 0.8 nM

B3: StFliD_(45–467) (domain or fragment)
chain: TAYGTLKSALEKFQTANTALNKADLFKSTVASSTTEDLKVSTTAGAAAGTYKINVTQLAAAQSLATKTTFATTKEQLGDTSVTSRTIKIEQPGRKEPLEIKLDKGDTSMEAIRDAINDADSGIAASIVKVKENEFQLVLTANSGTDNTMKITVEGDTKLNDLLAYDSTTNTGNMQELVKAENAKLNVNGIDIERQSNTVTDAPQGITLTLTKKVTDATVTVTKDDTKAKEAIKSWVDAYNSLVDTFSSLTKYTAVEPGEEASDKNGALLGDSVVRTIQTGIRAQFANSGSNSAFKTMAEIGITQDGTSGKLKIDDDKLTKVLKDNTAAARELLVGDGKETGITTKIATEVKSYLADDGIIDNAQDNVNATLKSLTKQYLSVSNSIDETVARYKAQFTQLDTMMSKLNNTSSYLTQQFTAMNKS
notes: FliD of Salmonella Typhimurium, residues 45–467
[4]
  binding result: binds

B4: StFliD_(401–467) (domain or fragment)
chain: DGIIDNAQDNVNATLKSLTKQYLSVSNSIDETVARYKAQFTQLDTMMSKLNNTSSYLTQQFTAMNKS
notes: FliD of Salmonella Typhimurium, residues 401–467; The eluate was cleaved by TEV protease; also called C-terminal helix of StFliD; source: E. coli BL21(DE3), co-expressed with StFliT 1–94, co-purified (glutathione-Sepharose, TEV, Hitrap Q, Superdex 200)
[5]
  stoichiometry N: 1 StFliD per StFliT

## B5
[6]
  stoichiometry N: 1 StFliD per StFliT (2:2)
[7]
  stoichiometry N: 1 StFliD per StFliT
